{
  "source": "patent US20250084169A1",
  "about": "(published 2025)",
  "binders": {"B1": {"name": "B19c66 (antibody, human IgG1, kappa)", "light": "not shown", "heavy": "not shown", "chain": "CPPCPAPELLGGPSVFLFPPKPKDTLMISRTPEVTCVVVDVSHEDPEVKFNWYVDGVEVHNAKTKPREEQYNSTYRVVSVLTVLHQDWLNGKEYKCKVSNKALPAPIEKTISKAKGQPREPQVYVYPPSRDELTKNQVSLTCLVKGFYPSDIAVEWESNGQPENNYKTTPPVLDSDGSFALVSKLTVDKSRWQQGNVFSCSVMHEALHNHYTQKSLSLSPGK"}},
  "key": {"[1]": {"target": "recombinant human Fc gamma RIIIa (CD16a) 158V (human, UniProt P08637 17-208)", "sequence (P08637 17-208 F176V limits assumed)": "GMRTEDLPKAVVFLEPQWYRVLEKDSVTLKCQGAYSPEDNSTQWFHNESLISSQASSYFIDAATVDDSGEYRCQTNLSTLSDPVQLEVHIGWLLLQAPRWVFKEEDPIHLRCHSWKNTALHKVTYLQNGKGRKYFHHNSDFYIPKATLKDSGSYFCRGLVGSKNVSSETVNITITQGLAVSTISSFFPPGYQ"}},
  "data": [
    {"binder": "B1", "values": [
      {"measurement": "Kd", "setting": "[1]", "value": 234, "unit": "nM"},
      {"measurement": "Kd", "setting": "CD19 (target of Table 9)", "value": 21.8, "unit": "nM"}
    ]}
  ]
}
